Results taken from US20190071490A1, “Preventing Post-Ictal Headaches” (Beth Israel Deaconess Medical Center, Inc., priority 2017, published 2019).
Changes are numbered by the printed parent chain. In names and notes the source's numbering stands.

T1: human α-CGRP (Homo sapiens, UniProt P06881)
T1 construct: 1-37 (WT); purchased GenScript Corporation or Global Peptide Services
T1 sequence (P06881 83-119 limits assumed): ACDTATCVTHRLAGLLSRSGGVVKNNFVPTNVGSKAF

T2: rat α-CGRP (Rattus norvegicus, UniProt P01256)
T2 construct: rat α (1-37); purchased GenScript Corporation or Global Peptide Services
T2 sequence (P01256 83-119 limits assumed): T1 sequence (P06881 83-119 limits assumed) with A1S, D3N, N25D, K35E

B1: M65: G1 variant; L1 R28N T30G; L2 G50A L56I; H2 E54K A57C; HC-FW3 L99T A100V (antibody, V domains shown)
VH: EVQLVESGGGLVQPGGSLRLSCAASGFTFSNYWISWVRQAPGKGLEWVAEIRSKSDCSATHYAEAVKGRFTISRDNAKNSLYLQMNSLRAEDTAVYYCTVYFDYGLAIQNYWGQGTLVTVSS
VL: EIVLTQSPATLSLSPGERATLSCKASKNVGTYVSWYQQKPGQAPRLLIYAASNRYIGIPARFSGSGSGTDFTLTISSLEPEDFAVYYCSQSYNYPYTFGQGTKLEIK
B2: M79: G1 variant; L1 R28N T30S; L2 G50A L56T; H2 E54K A57P; HC-FW3 L99T A100V (antibody, V domains shown)
VH: B1 VH with C57P
VL: B1 VL with G30S, I56T
B3: M69: G1 variant; L1 R28N T30G; L2 L561; H2 E54K A57N S58E; HC-FW3 L99T A100V (antibody, V domains shown)
VH: B1 VH with C57N, S58E
VL: B1 VL with A50G
B4: M84: G1 variant; L1 R28N T30V; L2 A51H L56T; H2 E54N A57N; HC-FW3 L99T A100V (antibody, V domains shown)
VH: B1 VH with K54N, C57N
VL: B1 VL with G30V, A50G, A51H, I56T
B5: M68: G1 variant; L1 R28N T30G; L2 L561; H2 E54K A57N S58D E64D; HC-FW3 L99T A100V (antibody, V domains shown)
VH: B1 VH with C57N, S58D, E64D
VL: B1 VL with A50G
B6: M70: G1 variant; L1 R28N T30G; L2 L561; H2 E54K A57S; HC-FW3 L99T A100V (antibody, V domains shown)
VH: B1 VH with C57S
VL: B1 VL with A50G
B7: M67: G1 variant; L1 R28N T30G; L2 L561; H2 E54K A57F; HC-FW3 L99T A100V (antibody, V domains shown)
VH: B1 VH with C57F
VL: B1 VL with A50G
B8: M77: G1 variant; L1 R28N T30S; L2 G50A L56T; H2 E54K A57D; HC-FW3 L99T A100V (antibody, V domains shown)
VH: B1 VH with C57D
VL: B1 VL with G30S, I56T
B9: M72: G1 variant; L1 R28N T30G; L2 L56S; H2 E54K; HC-FW3 L99T A100V (antibody, V domains shown)
VH: B1 VH with C57A
VL: B1 VL with A50G, I56S
B10: M74: G1 variant; L1 R28N T30G; L2 L56S; H2 E54K A57S; HC-FW3 L99T A100V (antibody, V domains shown)
VH: B1 VH with C57S
VL: B1 VL with A50G, I56S
B11: M75: G1 variant; L1 R28N T30G; L2 L56S; H2 E54K A57V; HC-FW3 L99T A100V (antibody, V domains shown)
VH: B1 VH with C57V
VL: B1 VL with A50G, I56S
B12: M83: G1 variant; L1 R28N T30V; L2 A51H L56T; H2 E54K A57N S58M; H61F (printed in L1 column); HC-FW3 L99T A100V (antibody, V domains shown)
VH: B1 VH with C57N, S58M, H61F
VL: B1 VL with G30V, A50G, A51H, I56T
B13: M71: G1 variant; L1 R28N T30G; L2 L561; H2 E54K A57Y; HC-FW3 L99T A100V (antibody, V domains shown)
VH: B1 VH with C57Y
VL: B1 VL with A50G
B14: M78: G1 variant; L1 R28N T30S; L2 G50A L56T; H2 E54K A57N S58T; HC-FW3 L99T A100V (antibody, V domains shown)
VH: B1 VH with C57N, S58T
VL: B1 VL with G30S, I56T
B15: M80: G1 variant; L1 R28N T30S; L2 L561; H2 E54K A57N; S58V (printed in L1 column); HC-FW3 L99T A100V (antibody, V domains shown)
VH: B1 VH with C57N, S58V
VL: B1 VL with G30S, A50G
B16: M82: G1 variant; L1 R28N T30V; L2 A51H L56T; H2 A57N; HC-FW3 L99T A100V (antibody, V domains shown)
VH: B1 VH with K54E, C57N
VL: B1 VL with G30V, A50G, A51H, I56T
B17: M76: G1 variant; L1 R28N T30S; L2 G50A L56T; H2 A57G; HC-FW3 L99T A100V (antibody, V domains shown)
VH: B1 VH with K54E, C57G
VL: B1 VL with G30S, I56T
B18: M66: G1 variant; L1 R28N T30G; L2 L561; H2 E54K A57E; HC-FW3 L99T A100V (antibody, V domains shown)
VH: B1 VH with C57E
VL: B1 VL with A50G
B19: M73: G1 variant; L1 R28N T30G; L2 L56S; H2 E54K A57N S58Y E64D; HC-FW3 L99T A100V (antibody, V domains shown)
VH: B1 VH with C57N, S58Y, E64D
VL: B1 VL with A50G, I56S
B20: M81: G1 variant; L1 R28N T30S; L2 L56S; H2 E54K A57N S58E; HC-FW3 L99T A100V (antibody, V domains shown)
VH: B1 VH with C57N, S58E
VL: B1 VL with G30S, A50G, I56S

Columns and labels:
human α-CGRP = target: T1, human α-CGRP; assay: Biacore SPR affinity of Fab fragments to N-biotinylated human α-CGRP on SA chip; assay type: binding; conditions: 37° C., screening mode except underlined values
Description: (§1) Affinity determination of the Fabs. Affinities of the anti-CGRP monoclonal antibodies were determined at either 25° C. or 37° C. using the BIACORE3000™ surface plasmon resonance (SPR) system (Biacore, INC, Piscataway N.J.) with the manufacture's own running buffer, HBS-EP (10 mM HEPES pH 7.4, 150 mM NaCl, 3 mM EDTA, 0.005% v/v polysorbate P20). Affinity was determined by capturing N-terminally biotinylated CGRP peptides (custom ordered from GenScript Corporation, New Jersey or Global Peptide Services, Colorado) via pre-immobilized streptavidin on SA chip and measuring binding kinetics of antibody Fab titrated across the CGRP surface. Biotinylated CGRP was diluted into HBS-EP and injected over the chip at a concentration of less than 0.001 mg/ml. Using variable flow time across the individual chip channels, two ranges of antigen density were achieved: <50 response units (RU) for detailed kinetic studies and about 800 RU for concentration studies and screening. […] After each binding cycle, surfaces were regenerated with 25 mM NaOH in 25% v/v ethanol, which was tolerated over hundreds of cycles. Kinetic association rate (kon) and dissociation rate (koff) were obtained simultaneously by fitting the data to a 1:1 Langmuir binding model (Karlsson et al. (1994). Methods Enzymology 6. 99-110) using the BIAevaluation program. Global equilibrium dissociation constants (KD) or “affinities” were calculated from the ratio KD=koff/kon.
(§2) Biacore assay for affinity determination. […] All Biacore assays were conducted in HBS-EP running buffer (10 mM HEPES pH 7.4, 150 mM NaCl, 3 mM EDTA, 0.005% v/v polysorbate P20). CGRP surfaces were prepared by diluting the N-biotinylated CGRP to a concentration of less than 0.001 mg/mL into HBS-EP buffer and injecting it across the SA sensor chip using variable contact times. Low capacity surfaces, corresponding to capture levels <50 response units (RU) were used for high-resolution kinetic studies, whereas high capacity surfaces (about 800 RU of captured CGRP) were used for concentration studies, screening, and solution affinity determinations. […] Samples were typically injected for 1 minute at 100 μL/min and dissociation times of at least 10 minutes were allowed. After each binding cycle, surfaces were regenerated with 25 mM NaOH in 25% v/v ethanol, which was tolerated over hundreds of cycles. An entire titration series (typically generated in duplicate) was fit globally to a 1:1 Langmuir binding model using the BIAevaluation program. This returned a unique pair of association and dissociation kinetic rate constants (respectively, kon and koff) for each binding interaction, whose ratio gave the equilibrium dissociation constant (KD=koff/kon).
(§3) High-resolution analysis of binding interactions with extremely slow off rates. […] The protocol described above was used with the following modifications. The association rate constant (kon) was determined by injecting a 2-fold titration series (in duplicate) spanning 550 nM-1 nM for 30 seconds at 100 μL/min and allowing only a 30 second dissociation phase. The dissociation rate constant (koff) was determined by injecting three concentrations (high, medium, and low) of the same titration series in duplicate for 30 seconds and allowing a 2-hour dissociation phase. The affinity (KD) of each interaction was obtained by combining the kon and koff values obtained in both types of experiments, as shown in Table 4.

rat α-CGRP = target: T2, rat α-CGRP; assay: Biacore SPR affinity of Fab fragments to N-biotinylated rat α-CGRP on SA chip; assay type: binding; conditions: 37° C., screening mode except underlined values
Description: as §1, §2, §3

Molecule	α-human koff (human α-CGRP) [s⁻¹]	α-rat koff (rat α-CGRP) [s⁻¹]	α-rat koff (1/s) (rat α-CGRP)
B1	0.000803	0.00407	
B2	0.00129	0.19	
B3	0.000733	0.00181	
B4	0.00108	0.0176	
B5	0.000428	0.00676	
B6	0.000559	0.00607	
B7	0.00082	0.00171	
B8	0.000477	0.0143	
B9	0.0004	0.00395	
B10	0.000597	0.00603	
B11	0.00116	0.0187	
B12	0.000933		No binding
B13	0.00128	0.00212	
B14	0.00131	0.167	
B15	0.00209	0.0993	
B16	0.000877	0.00699	
B17	0.000364	0.00116	
B18	0.00052	0.00511	
B19	0.000255	0.003	
B20	0.00049	0.00429	
